Data: the supplement of paper PMC10567573

B1: CDC14A (parent)
chain: LNLAMVYRYCCKLNKKLKSYSLSR
B2: ADAMTS4 (parent)
chain: HVDPEEPWSPCSARFITDFLDNGY

Variants of: B1
Assay: protein stability index of a GFP-peptide fusion (GPS, HEK-293T) (PSI 1-6); higher = more stable
Details: c terminus: a fixed tail appended
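Also: lentivirally expressed fusions sorted by FACS into six bins by GFP to DsRed ratio, PSI derived from sequencing read proportions per bin multiplied by bin number.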

Protein stability index of substitutions, site by site:
V6: R 2.78, P 2.15, M 2.72, C 3.05, N 1.63, Q 2.85, L 2.01, K 2.39, I 3.28, A 3.5, D 2.05, E 1.76, G 1.73, S 2.5, F 5.59, W 3.43, H 2.03, T 2.46, Y 2.45
Y7: N 2.46, F 3.48, A 1.85, G 2.43, P 2.23, Q 2.71, M 1.91, C 2.73, T 3.96, E 2.16, V 3.72, L 3.34, H 2.68, K 2.13, I 3.1, S 3.42
L3: E 2.32, A 2.74, M 2.88, H 1.8, Y 1.81, P 3.05, C 4, R 2.17, F 3.38, N 1.89, K 3.48, I 2.02, G 4.11, D 2.29, S 2.2, V 2.59, T 2.79, Q 2.61
M5: Y 3.21, A 2.67, F 2.8, H 3.35, G 3.92, V 2.54, P 3.2, K 3.87, D 3.92, L 2.57, W 3.48, N 3.77, C 4.65, Q 1.56, T 3.46, E 3
R8: E 2.43, I 2.62, P 2.09, D 3.23, Q 2.26, H 4.35, G 3.71, Y 2.67, V 3.11, S 2.98, F 3.02, K 2.08, T 2.03, L 3.17, N 1.97, C 3.52
C11: M 2.74, P 1.97, E 1.62, S 3.77, R 2.64, Y 2.63, L 2.64, A 2.73, V 2.45, I 3.23, K 3, N 3.24, D 2.85, G 4.89, H 3.15, W 2.15
C10: Q 2.8, V 3.25, F 2.71, K 1.65, D 2.31, N 1.95, M 2.89, R 1.59, S 2.28, H 3.62, L 2.67, E 1.98, A 2.41, T 2.32, P 2.05, Y 4.25, I 4.27, W 3.64, G 2.71
K12: D 1.81, M 2.19, F 2.18, S 2.58, I 3.53, P 2.87, Q 3.04, G 1.89, V 2.59, E 1.5, A 2.1, R 2.13, L 2.5, W 2.14, H 1.73, N 2.15, Y 2.51, T 2.55
Y9: C 2.59, N 2.03, G 3.25, K 3.54, T 2.54, M 1.81, H 2.48, Q 3.9, I 2.02, A 2.3, V 2.44, P 1.41, S 2.19, E 2.45, W 2.91, R 2.03, D 2.91
L13: T 2.08, M 3.6, F 3.31, S 1.8, E 2.48, P 1.2, R 3.08, H 2, N 1.89, G 2.49, I 2.69, K 1.56, D 2.11, C 2.79, A 2.92, Q 3.27
A4: H 3.55, P 3.19, N 3.18, C 3.81, S 3.5, L 2.68, E 2.43, I 2.37, G 3.33, W 1.8, M 3.12, F 3.74, D 4.12, V 2.74, R 3.08, Q 4.07, Y 2.91, T 2.15, K 1.59
L1: M 3.23, C 3.72, R 2.77, H 2.26, F 2.51, D 3.11, E 3.44, I 3.18, A 2.44, K 2.73, T 2.3, S 3.71, Y 2.49
N2: W 3.17, V 1.82, R 2.39, Y 2.64, T 2.24, P 3.42, I 2.14, L 2.17, C 3.28, E 3.15, M 3.27, A 3.34, F 1.04

Variants of: B2
Assay: as above
Details: c terminus: a fixed tail appended

Protein stability index: each site, then its substitutions
D21: T 1.96, S 1.73, G 1.76, A 1.35, K 1.88, E 1.71
A13: W 1.95, F 1.92, H 1.85, E 2.1, L 1.88, Q 1.97, Y 1.67
L20: P 2.15, W 1.59, V 1.92, D 2.22, T 2.13, A 1.96
H1: R 2.26, K 1.91, N 2.37, C 2.17, G 2.81, A 2.09
V2: F 2.14, A 2.36, Q 2.16, D 3
F19: Q 2.21, K 2.16, P 3, E 1.96, H 2.29
P10: N 1.99, H 1.81, K 2.21
T17: W 1.86, Q 1.77, D 1.81, Y 1.83, N 1.62
W8: N 2.95, A 3.47, P 3.49, T 3.54, C 3.39, S 3.27, G 3.2, R 3.36
I16: P 1.81, A 2.13, V 1.97, W 1.55, N 2.19
S9: R 1.93, L 1.67, Q 1.62, G 2.24, C 2.08
S12: P 1.4, L 2.12
D18: P 2.17, V 2.03, I 2.73, E 1.99, K 2.02, R 1.13
E5: H 1.66, V 1.92, Y 3.13, K 2.58
Y24: E 2.01, G 2.36, R 1.96, N 2.21
P4: H 2.21, R 2.42, C 2.23
C11: A 2.41, E 2, S 2.19
F15: K 2.07, S 1.88, M 1.91, L 1.96, I 1.71, N 2.04, H 1.98
P7: Q 1.72, M 2.23, N 1.74, G 1.92
E6: F 2.19, N 1.94, G 1.92, T 1.77, H 1.74, Y 2.07, P 2.72
N22: Y 1.78, A 1.8, V 1.94, I 2.52
G23: E 1.96, P 2.1, N 1.61, H 2.12, K 2.06, I 2.05
D3: K 1.76, P 1.85, N 2.21, V 1.77, R 1.8
R14: F 2.27, Q 2, G 2.15
